Measured values published in paper PMC2192906.
Like-named read-outs stand apart in the source and are kept apart here.

Tests used:
[1] = biological target: biotinylated L^d–QL9 complex (immobilised on the chip) (UniProt Q60597); test: SPR
[2] = biological target: QL9/L^d complex on the surface of T2-L^d cells (UniProt Q60597); test: radioligand binding
[3] = biological target: 2C scTCR 102/55 double mutant (αS102A, βT55A) (mouse); test: SPR
[4] = biological target: 2C single-chain TCR (scTCR), wild-type, thioredoxin fusion (mouse); test: SPR
[5] = biological target: 2C scTCR 102/55 double mutant (αS102A, βT55A) (mouse); test: SPR; remark: listed apart in the source

Substance: 2C scTCR 102/55 double mutant (αS102A, βT55A)
- Kd [1]: 700 nM
- fold better than wild-type (IC50 ratio) [2]: 2.3 fold

Substance: 2C scTCR 102/56 double mutant (αS102A, βE56A)
- ΔΔG against wild-type [2]: -0.32 kcal/mol

Substance: 2C scTCR αS51P mutant (Vα3.2-like)
- fold reduced against wild-type (IC50 ratio) [2]: 15 fold

Substance: 2C scTCR αS102A mutant
- ΔΔG against wild-type [2]: -0.31 kcal/mol

Substance: 2C scTCR βE56A mutant
- ΔΔG against wild-type [2]: -0.11 kcal/mol

Substance: 2C scTCR βE56K mutant
- ΔΔG against wild-type [2]: 1.06 kcal/mol

Substance: 2C scTCR βT55A mutant
- ΔΔG against wild-type [2]: -0.23 kcal/mol

Substance: 2C single-chain TCR (scTCR), wild-type, thioredoxin fusion
- Kd [1]: 1900 nM

Substance: purified soluble L^d–QL9 complex (from UniProt Q60597 41-1023) (peptide-MHC)
- Kd [3]: 2400 nM
- koff of wild-type over koff of 102/55 (fold faster) [3]: 3.2 fold
- kon of wild-type over kon of 102/55 (fold faster) [3]: 2.4 fold
- Kd [4]: 1900 nM
- Kd [5]: 1200 nM
